Measurements from US20230002480A1.

How the values were obtained:
Test in all cases: cell-based or functional assay
[1] = molecular target: HIV-1 Env of pseudovirus TRO.11 (HIV-1)
[2] = molecular target: HIV-1 Env of pseudovirus Q259.d2.17 (HIV-1)
[3] = molecular target: HIV-1 Env of pseudovirus HIV-0013095-2.11 (HIV-1)
[4] = molecular target: HIV-1 Env of pseudovirus MS208.A1 (HIV-1)
[5] = molecular target: HIV-1 Env of pseudovirus HIV-16845-2.22 (HIV-1)
[6] = molecular target: HIV-1 Env of pseudovirus QH0692.42 (HIV-1)
[7] = molecular target: HIV-1 Env of pseudovirus 62357_14_D3_4589 (HIV-1)
[8] = molecular target: HIV-1 Env of pseudovirus Du422.1 (HIV-1)
[9] = molecular target: HIV-1 Env of pseudovirus Du156.12 (HIV-1)
[10] = molecular target: HIV-1 Env of pseudovirus REJO4541.67 (HIV-1)
[11] = molecular target: HIV-1 Env of pseudovirus Ce0682_E4 (HIV-1)
[12] = molecular target: HIV-1 Env of pseudovirus Q461.e2 (HIV-1)
[13] = molecular target: HIV-1 Env of pseudovirus PVO.4 (HIV-1)
[14] = molecular target: HIV-1 Env of pseudovirus CNE53 (HIV-1)
[15] = molecular target: HIV-1 Env of pseudovirus ZM214M.PL15 (HIV-1)
[16] = molecular target: HIV-1 Env of pseudovirus ZM249M.PL1 (HIV-1)
[17] = molecular target: HIV-1 Env of pseudovirus Ce2060_G9 (HIV-1)
[18] = molecular target: HIV-1 Env of pseudovirus Ce2010_F5 (HIV-1)
[19] = molecular target: HIV-1 Env of pseudovirus WEAU_d15_410_787 (HIV-1)

Q: What does the source list for N49P19 (antibody)?
A: IC50 [1]: 0.394 µg/mL; IC80 [1]: 1.3 µg/mL; MPI [1]: 100; IC50 [2]: > 50 µg/mL; IC80 [2]: > 50 µg/mL; MPI [2]: 11; IC50 [3]: > 50 µg/mL; IC80 [3]: > 50 µg/mL; MPI [3]: 18; IC50 [4]: 0.501 µg/mL; IC80 [4]: 1.99 µg/mL; MPI [4]: 99; IC50 [5]: 14.5 µg/mL; IC80 [5]: > 50 µg/mL; MPI [5]: 73; IC50 [6]: 2.56 µg/mL; IC80 [6]: 13.4 µg/mL; MPI [6]: 98; IC50 [7]: 37.4 µg/mL; IC80 [7]: > 50 µg/mL; MPI [7]: 51; IC50 [8]: > 50 µg/mL; IC80 [8]: > 50 µg/mL; MPI [8]: 30; IC50 [9]: 2.17 µg/mL; IC80 [9]: 17 µg/mL; MPI [9]: 87; IC50 [10]: 0.169 µg/mL; IC80 [10]: 0.859 µg/mL; MPI [10]: 100; IC50 [11]: 0.607 µg/mL; IC80 [11]: 2.32 µg/mL; MPI [11]: 98; IC50 [12]: 0.774 µg/mL; IC80 [12]: 4.05 µg/mL; MPI [12]: 100; IC50 [13]: 0.85 µg/mL; IC80 [13]: 2.95 µg/mL; MPI [13]: 100; IC50 [14]: 1.5 µg/mL; IC80 [14]: > 50 µg/mL; MPI [14]: 78; IC50 [15]: 1.85 µg/mL; IC80 [15]: 14.8 µg/mL; MPI [15]: 98; IC50 [16]: > 50 µg/mL; IC80 [16]: > 50 µg/mL; MPI [16]: 33; IC50 [17]: 1.06 µg/mL; IC80 [17]: 5.62 µg/mL; MPI [17]: 98; IC50 [18]: 7.66 µg/mL; IC80 [18]: 45.4 µg/mL; MPI [18]: 82; IC50 [19]: 0.177 µg/mL; IC80 [19]: 0.612 µg/mL; MPI [19]: 100

Q: How did the IC50 [1] turn out when N49P9 (antibody) was run?
A: 0.044 µg/mL

Q: And the IC80 [1]?
A: 0.177 µg/mL

Q: What about the MPI [1] of the same substance?
A: 100

Q: What about the IC50 [2] of the same substance?
A: 0.807 µg/mL

Q: And the IC80 [2]?
A: > 50 µg/mL

Q: What about the MPI [2] of the same substance?
A: 74

Q: And the IC50 [3]?
A: 0.179 µg/mL

Q: And the IC80 [3]?
A: 0.635 µg/mL

Q: What about the MPI [3] of the same substance?
A: 100

Q: What about the IC50 [4] of the same substance?
A: 0.08 µg/mL

Q: And the IC80 [4]?
A: 0.294 µg/mL

Q: And the MPI [4]?
A: 100

Q: What about the IC50 [5] of the same substance?
A: 1.09 µg/mL

Q: And the IC80 [5]?
A: 9.96 µg/mL

Q: And the MPI [5]?
A: 98

Q: And the IC50 [6]?
A: 0.352 µg/mL

Q: What about the IC80 [6] of the same substance?
A: 1.21 µg/mL

Q: What about the MPI [6] of the same substance?
A: 100

Q: What about the IC50 [7] of the same substance?
A: 0.074 µg/mL

Q: What about the IC80 [7] of the same substance?
A: 0.307 µg/mL

Q: What about the MPI [7] of the same substance?
A: 100

Q: What about the IC50 [8] of the same substance?
A: > 50 µg/mL

Q: And the IC80 [8]?
A: > 50 µg/mL

Q: And the MPI [8]?
A: 17

Q: And the IC50 [9]?
A: 0.043 µg/mL

Q: And the IC80 [9]?
A: 0.13 µg/mL

Q: What about the MPI [9] of the same substance?
A: 100

Q: And the IC50 [10]?
A: 0.071 µg/mL

Q: And the IC80 [10]?
A: 0.291 µg/mL

Q: And the MPI [10]?
A: 100

Q: And the IC50 [11]?
A: 0.049 µg/mL

Q: What about the IC80 [11] of the same substance?
A: 0.185 µg/mL

Q: What about the MPI [11] of the same substance?
A: 100

Q: What about the IC50 [12] of the same substance?
A: 0.271 µg/mL

Q: What about the IC80 [12] of the same substance?
A: 0.953 µg/mL

Q: And the MPI [12]?
A: 100

Q: And the IC50 [13]?
A: 0.179 µg/mL

Q: And the IC80 [13]?
A: 0.628 µg/mL

Q: What about the MPI [13] of the same substance?
A: 100

Q: And the IC50 [14]?
A: 0.123 µg/mL

Q: What about the IC80 [14] of the same substance?
A: 0.462 µg/mL

Q: What about the MPI [14] of the same substance?
A: 99

Q: And the IC50 [15]?
A: 0.477 µg/mL

Q: What about the IC80 [15] of the same substance?
A: 1.99 µg/mL

Q: What about the MPI [15] of the same substance?
A: 100

Q: What about the IC50 [16] of the same substance?
A: 0.152 µg/mL

Q: What about the IC80 [16] of the same substance?
A: 0.801 µg/mL

Q: And the MPI [16]?
A: 97

Q: What about the IC50 [17] of the same substance?
A: 0.419 µg/mL

Q: What about the IC80 [17] of the same substance?
A: 2.19 µg/mL

Q: And the MPI [17]?
A: 100

Q: What about the IC50 [18] of the same substance?
A: 0.089 µg/mL

Q: And the IC80 [18]?
A: 0.271 µg/mL

Q: And the MPI [18]?
A: 100

Q: What about the IC50 [19] of the same substance?
A: 0.063 µg/mL

Q: What about the IC80 [19] of the same substance?
A: 0.162 µg/mL

Q: What about the MPI [19] of the same substance?
A: 100

Q: Which results are given for N49P9.1 (antibody)?
A: IC50 [1]: 0.052 µg/mL; IC80 [1]: 0.196 µg/mL; MPI [1]: 100; IC50 [2]: > 50 µg/mL; IC80 [2]: > 50 µg/mL; MPI [2]: 48; IC50 [3]: 0.358 µg/mL; IC80 [3]: 1.26 µg/mL; MPI [3]: 100; IC50 [4]: 0.082 µg/mL; IC80 [4]: 0.248 µg/mL; MPI [4]: 100; IC50 [5]: 2.13 µg/mL; IC80 [5]: 10.7 µg/mL; MPI [5]: 98; IC50 [6]: 0.107 µg/mL; IC80 [6]: 0.709 µg/mL; MPI [6]: 100; IC50 [7]: 0.227 µg/mL; IC80 [7]: 1.09 µg/mL; MPI [7]: 99; IC50 [8]: > 50 µg/mL; IC80 [8]: > 50 µg/mL; MPI [8]: 17; IC50 [9]: 0.066 µg/mL; IC80 [9]: 0.252 µg/mL; MPI [9]: 100; IC50 [10]: 0.064 µg/mL; IC80 [10]: 0.231 µg/mL; MPI [10]: 100; IC50 [11]: 0.076 µg/mL; IC80 [11]: 0.264 µg/mL; MPI [11]: 100; IC50 [12]: 0.363 µg/mL; IC80 [12]: 1.15 µg/mL; MPI [12]: 100; IC50 [13]: 0.181 µg/mL; IC80 [13]: 0.874 µg/mL; MPI [13]: 100; IC50 [14]: 0.14 µg/mL; IC80 [14]: 0.647 µg/mL; MPI [14]: 99; IC50 [15]: 0.561 µg/mL; IC80 [15]: 2.96 µg/mL; MPI [15]: 100; IC50 [16]: 0.206 µg/mL; IC80 [16]: 1.92 µg/mL; MPI [16]: 95; IC50 [17]: 0.781 µg/mL; IC80 [17]: 3.54 µg/mL; MPI [17]: 100; IC50 [18]: 0.12 µg/mL; IC80 [18]: 0.38 µg/mL; MPI [18]: 100; IC50 [19]: 0.068 µg/mL; IC80 [19]: 0.253 µg/mL; MPI [19]: 100
